Assay results reported in patent US9260500B2, “Peptide and use thereof” (Takeda Pharmaceutical Company Limited, priority 2009, dated 2016).
Starred links: 1 amine or outer side, 2 acyl side, 3 side chain; linkers in the order of their positions; H or OH if unused. Non-standard residues stand in square brackets, D forms with d. Primed or numbered codes have the meaning given here. *: point of attachment. Asn(Me)″ = Nω-methylasparagine, CNC(=O)C[C@H](N[*:1])C(=O)[*:2]; Ser(Me)″ = O-methylserine, COC[C@H](N[*:1])C(=O)[*:2]; Cyclohexanecarbonyl = O=C(C1CCCCC1)*; Ala(cPr) = N[C@@H](CC1CC1)C(=O)O; Cha = N[C@@H](CC1CCCCC1)C(=O)O; Gly(cPr) = N[C@H](C(=O)O)C1CC1; Isobutyryl = CC(C)C(=O)*; Nle = CCCC[C@H](N)C(=O)O; Abu = CC[C@H](N)C(=O)O; Aib = CC(C)(N)C(=O)O; Bz = O=C(c1ccccc1)*

Tests used:
human Y2 receptor [1] = molecular target: T1, human Y2 receptor (Homo sapiens, UniProt P49146); assay: Human Y2 Receptor G Protein Binding Assay (GBA), [35S]GTPγS; format: biochemical; conditions: EC50 of test compound/EC50 of PYY(3-36) (PYY3-36 taken as 1), hY2R/CHO membrane fraction
T1 construct: expressed in transfected cells; membrane fraction
T1 sequence (P49146 1-381): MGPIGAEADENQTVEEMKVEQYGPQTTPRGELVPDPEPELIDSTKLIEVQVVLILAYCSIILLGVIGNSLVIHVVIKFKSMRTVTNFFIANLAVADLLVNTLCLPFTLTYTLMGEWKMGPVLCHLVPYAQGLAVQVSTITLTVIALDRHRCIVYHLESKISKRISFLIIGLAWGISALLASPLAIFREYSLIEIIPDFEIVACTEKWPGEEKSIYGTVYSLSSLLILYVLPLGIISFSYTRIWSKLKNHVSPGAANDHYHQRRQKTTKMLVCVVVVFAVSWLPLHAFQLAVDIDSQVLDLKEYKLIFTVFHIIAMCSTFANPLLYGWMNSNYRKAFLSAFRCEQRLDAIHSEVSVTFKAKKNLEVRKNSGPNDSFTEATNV
Summary of the method: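 Agonism measured as [35S]GTPγS binding, read by GF/C filtration and scintillation counting after 120 min at room temperature, using human Y2 membranes at 1 μg protein/mL in pH 7.4 Tris/MgCl2/NaCl/GDP buffer. Compound serially diluted 100 μM–1 nM; EC50 normalized to PYY(3-36) (ratio = compound/PYY).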

human Y2 receptor [2] = molecular target: T1, human Y2 receptor; assay: Receptor Binding Assay (RBA) for Human Y2, [125I]-PYY displacement on hY2R/CHO membrane fraction; conditions: IC50 of test compound/IC50 of PYY(3-36) (PYY(3-36) taken as 1)
Summary of the method: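 hY2R stably expressed in CHO/dhfr− cells; membrane fraction prepared from cells disrupted in 10 mM NaHCO3, 5 mM EDTA buffer with protease inhibitors. Binding read as displacement of [125I]-PYY.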

| Substance | GBA EC50 Ratio (human Y2 receptor [1]) | RBA IC50 Ratio (human Y2 receptor [2]) |
| --- | --- | --- |
| Benzoyl-[Ser26, Cha27,28,36, Aib31]-PYY(25-36) (Bz-RS[Cha][Cha]NL[Aib]TRQR[Cha]-NH2; SMILES CC(C)C[C@H](NC(=O)[C@H](CC(N)=O)NC(=O)[C@H](CC1CCCCC1)NC(=O)[C@H](CC1CCCCC1)NC(=O)[C@H](CO)NC(=O)[C@H](CCCNC(=N)N)NC(=O)c1ccccc1)C(=O)NC(C)(C)C(=O)N[C@H](C(=O)N[C@@H](CCCNC(=N)N)C(=O)N[C@@H](CCC(N)=O)C(=O)N[C@@H](CCCNC(=N)N)C(=O)N[C@@H](CC1CCCCC1)C(N)=O)[C@@H](C)O) [compound No. 97] | 6.0 | 13 |
| Benzoyl-[Ser(Me)26, Cha27,28,36, Aib31]-PYY(25-36) (Bz-R[Ser(Me)″][Cha][Cha]NL[Aib]TRQR[Cha]-NH2; SMILES COC[C@H](NC(=O)[C@H](CCCNC(=N)N)NC(=O)c1ccccc1)C(=O)N[C@@H](CC1CCCCC1)C(=O)N[C@@H](CC1CCCCC1)C(=O)N[C@@H](CC(N)=O)C(=O)N[C@@H](CC(C)C)C(=O)NC(C)(C)C(=O)N[C@H](C(=O)N[C@@H](CCCNC(=N)N)C(=O)N[C@@H](CCC(N)=O)C(=O)N[C@@H](CCCNC(=N)N)C(=O)N[C@@H](CC1CCCCC1)C(N)=O)[C@@H](C)O) [compound No. 98] | 8.7 | 18 |
| Cyclohexanecarbonyl-[Cha27,36, Ala(cPr)28, Aib31]-PYY(25-36) (Cyclohexanecarbonyl-RH[Cha][Ala(cPr)]NL[Aib]TRQR[Cha]-NH2; SMILES CC(C)C[C@H](NC(=O)[C@H](CC(N)=O)NC(=O)[C@H](CC1CC1)NC(=O)[C@H](CC1CCCCC1)NC(=O)[C@H](Cc1c[nH]cn1)NC(=O)[C@H](CCCNC(=N)N)NC(=O)C1CCCCC1)C(=O)NC(C)(C)C(=O)N[C@H](C(=O)N[C@@H](CCCNC(=N)N)C(=O)N[C@@H](CCC(N)=O)C(=O)N[C@@H](CCCNC(=N)N)C(=O)N[C@@H](CC1CCCCC1)C(N)=O)[C@@H](C)O) [compound No. 78] | 23 | 15 |
| Cyclohexanecarbonyl-[Cha27,36, Ile28,31, Asn(Me)29]-PYY(25-36) (Cyclohexanecarbonyl-RH[Cha]I[Asn(Me)″]LITRQR[Cha]-NH2; SMILES CC[C@H](C)[C@H](NC(=O)[C@H](CC1CCCCC1)NC(=O)[C@H](Cc1c[nH]cn1)NC(=O)[C@H](CCCNC(=N)N)NC(=O)C1CCCCC1)C(=O)N[C@@H](CC(=O)NC)C(=O)N[C@@H](CC(C)C)C(=O)N[C@H](C(=O)N[C@H](C(=O)N[C@@H](CCCNC(=N)N)C(=O)N[C@@H](CCC(N)=O)C(=O)N[C@@H](CCCNC(=N)N)C(=O)N[C@@H](CC1CCCCC1)C(N)=O)[C@@H](C)O)[C@@H](C)CC) [compound No. 75] | 37 | 76 |
| Cyclohexanecarbonyl-[Nle26, Cha27,28,36, Aib31]-PYY(25-36) (Cyclohexanecarbonyl-R[Nle][Cha][Cha]NL[Aib]TRQR[Cha]-NH2; SMILES CCCC[C@H](NC(=O)[C@H](CCCNC(=N)N)NC(=O)C1CCCCC1)C(=O)N[C@@H](CC1CCCCC1)C(=O)N[C@@H](CC1CCCCC1)C(=O)N[C@@H](CC(N)=O)C(=O)N[C@@H](CC(C)C)C(=O)NC(C)(C)C(=O)N[C@H](C(=O)N[C@@H](CCCNC(=N)N)C(=O)N[C@@H](CCC(N)=O)C(=O)N[C@@H](CCCNC(=N)N)C(=O)N[C@@H](CC1CCCCC1)C(N)=O)[C@@H](C)O) [compound No. 77] | 33 | 50 |
| Isobutanoyl-[Abu26,27, Cha28,36, Aib31]-PYY(25-36) (Isobutyryl-R[Abu][Abu][Cha]NL[Aib]TRQR[Cha]-NH2; SMILES CC[C@H](NC(=O)[C@H](CCCNC(=N)N)NC(=O)C(C)C)C(=O)N[C@@H](CC)C(=O)N[C@@H](CC1CCCCC1)C(=O)N[C@@H](CC(N)=O)C(=O)N[C@@H](CC(C)C)C(=O)NC(C)(C)C(=O)N[C@H](C(=O)N[C@@H](CCCNC(=N)N)C(=O)N[C@@H](CCC(N)=O)C(=O)N[C@@H](CCCNC(=N)N)C(=O)N[C@@H](CC1CCCCC1)C(N)=O)[C@@H](C)O) [compound No. 94] | 37 | 31 |
| Isobutanoyl-[Abu26, Cha27,28,36, Abu30, Aib31]-PYY(25-36) (Isobutyryl-R[Abu][Cha][Cha]N[Abu][Aib]TRQR[Cha]-NH2; SMILES CC[C@H](NC(=O)[C@H](CCCNC(=N)N)NC(=O)C(C)C)C(=O)N[C@@H](CC1CCCCC1)C(=O)N[C@@H](CC1CCCCC1)C(=O)N[C@@H](CC(N)=O)C(=O)N[C@@H](CC)C(=O)NC(C)(C)C(=O)N[C@H](C(=O)N[C@@H](CCCNC(=N)N)C(=O)N[C@@H](CCC(N)=O)C(=O)N[C@@H](CCCNC(=N)N)C(=O)N[C@@H](CC1CCCCC1)C(N)=O)[C@@H](C)O) [compound No. 91] | 21 | 20 |
| Isobutanoyl-[Abu26, Cha27,28,36, Ala(cPr)30, Aib31]-PYY(25-36) (Isobutyryl-R[Abu][Cha][Cha]N[Ala(cPr)][Aib]TRQR[Cha]-NH2; SMILES CC[C@H](NC(=O)[C@H](CCCNC(=N)N)NC(=O)C(C)C)C(=O)N[C@@H](CC1CCCCC1)C(=O)N[C@@H](CC1CCCCC1)C(=O)N[C@@H](CC(N)=O)C(=O)N[C@@H](CC1CC1)C(=O)NC(C)(C)C(=O)N[C@H](C(=O)N[C@@H](CCCNC(=N)N)C(=O)N[C@@H](CCC(N)=O)C(=O)N[C@@H](CCCNC(=N)N)C(=O)N[C@@H](CC1CCCCC1)C(N)=O)[C@@H](C)O) [compound No. 80] | 12 | 17 |
| Isobutanoyl-[Abu26, Cha27,28,36, Gln30, Aib31]-PYY(25-36) (Isobutyryl-R[Abu][Cha][Cha]NQ[Aib]TRQR[Cha]-NH2; SMILES CC[C@H](NC(=O)[C@H](CCCNC(=N)N)NC(=O)C(C)C)C(=O)N[C@@H](CC1CCCCC1)C(=O)N[C@@H](CC1CCCCC1)C(=O)N[C@@H](CC(N)=O)C(=O)N[C@@H](CCC(N)=O)C(=O)NC(C)(C)C(=O)N[C@H](C(=O)N[C@@H](CCCNC(=N)N)C(=O)N[C@@H](CCC(N)=O)C(=O)N[C@@H](CCCNC(=N)N)C(=O)N[C@@H](CC1CCCCC1)C(N)=O)[C@@H](C)O) [compound No. 90] | 22 | 19 |
| Isobutanoyl-[Abu26, Cha27,28,36, Gly(cPr)31]-PYY(25-36) (Isobutyryl-R[Abu][Cha][Cha]NL[Gly(cPr)]TRQR[Cha]-NH2; SMILES CC[C@H](NC(=O)[C@H](CCCNC(=N)N)NC(=O)C(C)C)C(=O)N[C@@H](CC1CCCCC1)C(=O)N[C@@H](CC1CCCCC1)C(=O)N[C@@H](CC(N)=O)C(=O)N[C@@H](CC(C)C)C(=O)N[C@H](C(=O)N[C@H](C(=O)N[C@@H](CCCNC(=N)N)C(=O)N[C@@H](CCC(N)=O)C(=O)N[C@@H](CCCNC(=N)N)C(=O)N[C@@H](CC1CCCCC1)C(N)=O)[C@@H](C)O)C1CC1) [compound No. 88] | 16 | 25 |
| Isobutanoyl-[Abu26, Cha27,28,36, His30, Aib31]-PYY(25-36) (Isobutyryl-R[Abu][Cha][Cha]NH[Aib]TRQR[Cha]-NH2; SMILES CC[C@H](NC(=O)[C@H](CCCNC(=N)N)NC(=O)C(C)C)C(=O)N[C@@H](CC1CCCCC1)C(=O)N[C@@H](CC1CCCCC1)C(=O)N[C@@H](CC(N)=O)C(=O)N[C@@H](Cc1c[nH]cn1)C(=O)NC(C)(C)C(=O)N[C@H](C(=O)N[C@@H](CCCNC(=N)N)C(=O)N[C@@H](CCC(N)=O)C(=O)N[C@@H](CCCNC(=N)N)C(=O)N[C@@H](CC1CCCCC1)C(N)=O)[C@@H](C)O) [compound No. 92] | 20 | 22 |
